Results as given in patent publication US5210024A, “Isolation of strains of Saccharomyces cerevisiae having altered α-acetyltransferase activity” (priority 1991, dated 1993).
Ends that are not written are not given here.

Experiments:
[1] = target: T1, N^α -AT (AAA1 N^α -acetyltransferase) (Saccharomyces cerevisiae, UniProt P07347+P12945); assay: N^α-acetylation of synthetic peptides by AAA1 N^α-acetyltransferase ([3H]acetyl coenzyme A incorporation); assay type: biochemical; parameters: concentration or dose not given beside the values
T1 construct: isolates N^α -acetyltransferase by treating yeast cells with lyticase; endogenous in cells; host or cells: Saccharomyces cerevisiae cells (native enzyme)
T1 sequence (P12945 2-854): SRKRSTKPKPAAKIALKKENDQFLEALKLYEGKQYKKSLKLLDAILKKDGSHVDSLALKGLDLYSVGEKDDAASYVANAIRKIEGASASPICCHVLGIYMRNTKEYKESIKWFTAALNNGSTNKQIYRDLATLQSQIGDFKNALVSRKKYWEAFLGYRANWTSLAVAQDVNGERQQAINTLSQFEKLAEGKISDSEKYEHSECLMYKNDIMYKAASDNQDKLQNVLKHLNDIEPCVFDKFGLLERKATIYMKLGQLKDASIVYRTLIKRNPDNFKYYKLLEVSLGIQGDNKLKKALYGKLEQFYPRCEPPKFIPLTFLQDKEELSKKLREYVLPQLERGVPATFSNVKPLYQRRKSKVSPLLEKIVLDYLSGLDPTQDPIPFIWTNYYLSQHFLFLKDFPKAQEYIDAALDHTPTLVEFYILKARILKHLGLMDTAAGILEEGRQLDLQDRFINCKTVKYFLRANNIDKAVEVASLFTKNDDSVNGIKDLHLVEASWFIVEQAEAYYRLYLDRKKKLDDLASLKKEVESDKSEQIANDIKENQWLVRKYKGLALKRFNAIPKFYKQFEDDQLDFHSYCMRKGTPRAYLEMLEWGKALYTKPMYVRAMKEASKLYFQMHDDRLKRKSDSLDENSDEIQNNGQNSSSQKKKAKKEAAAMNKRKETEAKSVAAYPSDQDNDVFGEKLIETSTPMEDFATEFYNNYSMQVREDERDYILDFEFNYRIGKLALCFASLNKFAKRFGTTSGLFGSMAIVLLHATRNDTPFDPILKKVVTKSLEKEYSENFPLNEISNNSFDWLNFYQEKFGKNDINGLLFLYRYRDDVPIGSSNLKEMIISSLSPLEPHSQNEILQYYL
T1 sequence (P07347 1-238): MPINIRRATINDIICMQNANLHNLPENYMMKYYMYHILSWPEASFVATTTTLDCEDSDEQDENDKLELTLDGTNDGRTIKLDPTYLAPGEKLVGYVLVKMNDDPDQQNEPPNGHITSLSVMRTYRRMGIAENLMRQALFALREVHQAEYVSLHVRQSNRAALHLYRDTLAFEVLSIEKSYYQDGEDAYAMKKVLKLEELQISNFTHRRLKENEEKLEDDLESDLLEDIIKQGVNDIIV
Protocol: (§1) Aliquots of the lysate were added to 1.5 ml Eppendorf tubes containing a reaction mixture of 50 mM HEPES, pH 7.4, 150 mM KCl, 1 mM DTT, 25 μM[^3 H]acetyl coenzyme A (0.5 μCi) and 50 μM ACTH (1-24) with an adjusted final volume of 100 μl. The assay mixture was incubated at 30 C for 30 min. The reaction was stopped by adding 0.5 M acetic acid and chilled in an ice bath. […] The radioactivity in the control represented acetylation of endogenous compounds is subtracted from each sample determination. One unit of activity is defined as 1 pmol of acetyl residues incorporated into ACTH (1-24) under standard assay conditions.
(§2) This second N^α -acetyltransferase is a methionine N^α -acetyltransferase activity, and is designated as "M-N^α -AT." This second N^α -acetyltransferase is the subject of U.S. patent application of John A. Smith and Fang-Jen S. Lee, filed Oct. […] In order to compare the relative specificity and activity of the AAA1 N^α -acetyltransferase ("N^α -AT") of the present invention with the methionine N^α -acetyltransferase activity (M-N^α -AT) of U.S. patent application of John A. Smith and Fang-Jen S. Lee, filed Oct. […] These peptides were assessed for their ability to serve as substrates for the two enzymes. In Table 2, the effect of the amino terminal amino acid on activity is investigated; in Table 3, the effect of the penultimate amino terminal amino acid on activity is investigated.

[2] = target: T2, M-N^α -AT (methionine N^α -acetyltransferase) (Saccharomyces cerevisiae, UniProt Q06504); assay: N^α-acetylation of synthetic peptides by methionine N^α-acetyltransferase; assay type: biochemical; parameters: concentration or dose not given beside the values
T2 construct: endogenous in cells; host or cells: Saccharomyces cerevisiae aaa1 (AAA1-null) mutant
T2 sequence (Q06504 1-195): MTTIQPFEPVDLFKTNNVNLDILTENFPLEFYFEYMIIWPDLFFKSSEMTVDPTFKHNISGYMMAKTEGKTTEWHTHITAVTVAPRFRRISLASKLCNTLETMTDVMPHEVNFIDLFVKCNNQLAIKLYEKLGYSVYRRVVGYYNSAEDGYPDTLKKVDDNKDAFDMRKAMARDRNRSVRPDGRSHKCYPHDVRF
T2 sequence (Q12387 2-796 partner limits assumed): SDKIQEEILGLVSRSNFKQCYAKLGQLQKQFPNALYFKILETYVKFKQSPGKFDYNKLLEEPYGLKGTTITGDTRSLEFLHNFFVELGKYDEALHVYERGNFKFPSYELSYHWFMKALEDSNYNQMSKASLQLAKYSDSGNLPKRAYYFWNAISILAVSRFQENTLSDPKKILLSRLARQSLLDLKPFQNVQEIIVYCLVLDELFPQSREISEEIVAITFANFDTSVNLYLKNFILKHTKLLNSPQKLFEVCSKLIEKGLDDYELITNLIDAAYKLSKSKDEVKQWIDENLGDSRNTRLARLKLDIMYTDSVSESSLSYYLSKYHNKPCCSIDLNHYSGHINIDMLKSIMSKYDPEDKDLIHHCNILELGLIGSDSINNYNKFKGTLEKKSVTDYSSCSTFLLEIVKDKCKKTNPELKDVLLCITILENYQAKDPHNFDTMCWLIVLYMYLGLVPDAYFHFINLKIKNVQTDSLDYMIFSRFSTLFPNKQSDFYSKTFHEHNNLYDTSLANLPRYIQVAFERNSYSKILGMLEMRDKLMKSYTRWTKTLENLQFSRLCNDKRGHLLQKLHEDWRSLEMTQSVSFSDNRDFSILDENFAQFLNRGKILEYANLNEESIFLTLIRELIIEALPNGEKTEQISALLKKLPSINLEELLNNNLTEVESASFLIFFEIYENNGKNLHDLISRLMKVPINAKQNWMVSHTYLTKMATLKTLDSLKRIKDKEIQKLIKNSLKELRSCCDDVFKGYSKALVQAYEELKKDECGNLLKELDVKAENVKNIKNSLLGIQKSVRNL
Protocol: as §1, §2

[3] = Table 3: relative activity for N^α-acetylation of synthetic peptide substrate, influence of the penultimate amino terminal residue
[4] = Table 2: relative activity for N^α-acetylation of synthetic peptide substrate, influence of the amino terminal residue

SCPETQKGVIFYESHGKLEYKDIP (SCPETQKGVIFYESHGKLEYKDIP)
Activity (%) (mean activity ± S.D.) N^α -AT [1, 3]: 136 ± 7%
Activity (%) (mean activity ± S.D.) M-N^α -AT [2, 3]: 0%

SLPETQKGVIFYESHGKLEYKDIP (SLPETQKGVIFYESHGKLEYKDIP)
Activity (%) (mean activity ± S.D.) N^α -AT [1, 3]: 126 ± 5%
Activity (%) (mean activity ± S.D.) M-N^α -AT [2, 3]: 0%

HIPETQKGVIFYESHGKLEYKDIP (HIPETQKGVIFYESHGKLEYKDIP; also: tritium label)
Activity (%) (mean activity ± S.D.) N^α -AT [1, 4]: 19 ± 2%
Activity (%) (mean activity ± S.D.) M-N^α -AT [2, 4]: 0%

IIPETQKGVIFYESHGKLEYKDIP (IIPETQKGVIFYESHGKLEYKDIP)
Activity (%) (mean activity ± S.D.) N^α -AT [1, 4]: 0%
Activity (%) (mean activity ± S.D.) M-N^α -AT [2, 4]: 0%

TIPETQKGVIFYESHGKLEYKDIP (TIPETQKGVIFYESHGKLEYKDIP)
Activity (%) (mean activity ± S.D.) N^α -AT [1, 4]: 103 ± 5%
Activity (%) (mean activity ± S.D.) M-N^α -AT [2, 4]: 0%

SWPETQKGVIFYESHGKLEYKDIP (SWPETQKGVIFYESHGKLEYKDIP)
Activity (%) (mean activity ± S.D.) N^α -AT [1, 3]: 91 ± 5%
Activity (%) (mean activity ± S.D.) M-N^α -AT [2, 3]: 0%

PIPETQKGVIFYESHGKLEYKDIP (PIPETQKGVIFYESHGKLEYKDIP)
Activity (%) (mean activity ± S.D.) N^α -AT [1, 4]: 70 ± 4%
Activity (%) (mean activity ± S.D.) M-N^α -AT [2, 4]: 0%

WIPETQKGVIFYESHGKLEYKDIP (WIPETQKGVIFYESHGKLEYKDIP)
Activity (%) (mean activity ± S.D.) N^α -AT [1, 4]: 0%
Activity (%) (mean activity ± S.D.) M-N^α -AT [2, 4]: 0%

LIPETQKGVIFYESHGKLEYKDIP (LIPETQKGVIFYESHGKLEYKDIP)
Activity (%) (mean activity ± S.D.) N^α -AT [1, 4]: 0%
Activity (%) (mean activity ± S.D.) M-N^α -AT [2, 4]: 0%

KIPETQKGVIFYESHGKLEYKDIP (KIPETQKGVIFYESHGKLEYKDIP)
Activity (%) (mean activity ± S.D.) N^α -AT [1, 4]: 0%
Activity (%) (mean activity ± S.D.) M-N^α -AT [2, 4]: 0%

SVPETQKGVIFYESHGKLEYKDIP (SVPETQKGVIFYESHGKLEYKDIP)
Activity (%) (mean activity ± S.D.) N^α -AT [1, 3]: 123 ± 7%
Activity (%) (mean activity ± S.D.) M-N^α -AT [2, 3]: 0%

SMPETQKGVIFYESHGKLEYKDIP (SMPETQKGVIFYESHGKLEYKDIP)
Activity (%) (mean activity ± S.D.) N^α -AT [1, 3]: 140 ± 7%
Activity (%) (mean activity ± S.D.) M-N^α -AT [2, 3]: 0%

VIPETQKGVIFYESHGKLEYKDIP (VIPETQKGVIFYESHGKLEYKDIP)
Activity (%) (mean activity ± S.D.) N^α -AT [1, 4]: 69 ± 4%
Activity (%) (mean activity ± S.D.) M-N^α -AT [2, 4]: 0%

RIPETQKGVIFYESHGKLEYKDIP (RIPETQKGVIFYESHGKLEYKDIP)
Activity (%) (mean activity ± S.D.) N^α -AT [1, 4]: 0%
Activity (%) (mean activity ± S.D.) M-N^α -AT [2, 4]: 0%

AIPETQKGVIFYESHGKLEYKDIP (AIPETQKGVIFYESHGKLEYKDIP)
Activity (%) (mean activity ± S.D.) N^α -AT [1, 4]: 0%
Activity (%) (mean activity ± S.D.) M-N^α -AT [2, 4]: 0%

SYPETQKGVIFYESHGKLEYKDIP (SYPETQKGVIFYESHGKLEYKDIP)
Activity (%) (mean activity ± S.D.) N^α -AT [1, 3]: 169 ± 8%
Activity (%) (mean activity ± S.D.) M-N^α -AT [2, 3]: 0%

SAPETQKGVIFYESHGKLEYKDIP (SAPETQKGVIFYESHGKLEYKDIP)
Activity (%) (mean activity ± S.D.) N^α -AT [1, 3]: 168 ± 8%
Activity (%) (mean activity ± S.D.) M-N^α -AT [2, 3]: 0%

EIPETQKGVIFYESHGKLEYKDIP (EIPETQKGVIFYESHGKLEYKDIP)
Activity (%) (mean activity ± S.D.) N^α -AT [1, 4]: 0%
Activity (%) (mean activity ± S.D.) M-N^α -AT [2, 4]: 0%

NIPETQKGVIFYESHGKLEYKDIP (NIPETQKGVIFYESHGKLEYKDIP)
Activity (%) (mean activity ± S.D.) N^α -AT [1, 4]: 0%
Activity (%) (mean activity ± S.D.) M-N^α -AT [2, 4]: 0%

GIPETQKGVIFYESHGKLEYKDIP (GIPETQKGVIFYESHGKLEYKDIP)
Activity (%) (mean activity ± S.D.) N^α -AT [1, 4]: 23 ± 3%
Activity (%) (mean activity ± S.D.) M-N^α -AT [2, 4]: 0%
